Assay results reported in article PMC2965030 (2009).

Target: t-PA (Homo sapiens, UniProt P00750)
Assay: SPR

t-PA, sequence (P00750 36-562): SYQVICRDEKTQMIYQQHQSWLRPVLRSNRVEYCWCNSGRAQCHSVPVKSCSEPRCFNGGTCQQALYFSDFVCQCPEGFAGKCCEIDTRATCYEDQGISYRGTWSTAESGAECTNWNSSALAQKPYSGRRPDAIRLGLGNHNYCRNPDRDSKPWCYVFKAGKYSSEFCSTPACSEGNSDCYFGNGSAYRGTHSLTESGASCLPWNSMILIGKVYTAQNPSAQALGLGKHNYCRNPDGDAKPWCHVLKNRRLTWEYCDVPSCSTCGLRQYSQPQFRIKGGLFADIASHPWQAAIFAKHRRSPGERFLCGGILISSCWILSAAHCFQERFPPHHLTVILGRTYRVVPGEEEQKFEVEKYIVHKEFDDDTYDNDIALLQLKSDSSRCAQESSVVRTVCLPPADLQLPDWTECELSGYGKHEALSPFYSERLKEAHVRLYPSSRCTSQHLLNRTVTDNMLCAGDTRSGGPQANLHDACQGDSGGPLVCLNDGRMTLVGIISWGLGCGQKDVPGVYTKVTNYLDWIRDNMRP

B1: β2-glycoprotein I (protein)
chain: GRTCPKPDDLPFSTVVPLKTFYEPGEEITYSCKPGYVSRGGMRKFICPLTGLWPINTLKCTPRVCPFAGILENGAVRYTTFEYPNTISFSCNTGFYLNGADSAKCTEEGKWSPELPVCAPIICPPPSIPTFATLRVYKPSAGNNSLYRDTAVFECLPQHAMFGNDTITCTTHGNWTKLPECREVKCPFPSRPDNGFVNYPAKPTLYYKDKATFGCHDGYSLDGPEEIECTKLGNWSAMPSCKASCKVPVKKATVVYQGERVKIQEKFKNGMLHGDKVSFFCKNKEKKCSYTEDAQCIDGTIEVPKCFKEHSSLAFWKTDASDVKPC
  Kd: 20 nM
